IC50 data for 6 molecules are collected here from US20100068218A1.

The target of experiment [1] is HLA-A*2402 (human). The experiment can be described thus: peptide-HLA binding inhibition assay.
In experiment [2] the target is HLA-A*0101 (human). The experiment in a line: peptide-HLA binding inhibition assay.

Usually IC50 stands for the concentration that inhibits the measured activity by half. The molecule LWFHISCLTF (modifications not checked) [HBV core 101 epitope …] yielded an IC50 in experiment [1] of 6.7 nM. With RFSWLSLLVPF (modifications not checked) [HBV env 332 epitope …], in experiment [1], the concentration for half-maximal inhibition (IC50) was found to be 12 nM. Same read-out and setting: in the case of GYPALMPLY (modifications not checked) [HBV pol 639 epitope …] it was 280 nM; in that of SFCGSPYSW (modifications not checked) [HBV pol 167 epitope …], 146 nM. YSLNFMGY (modifications not checked) [HBV pol 580 epitope YSLNFMGY] displayed an IC50 in experiment [2] of 382 nM.

In experiment [2], LTFGRETVLEY (modifications not checked) [HBV core 137 epitope …] registered an IC50 of 80 nM.
